Laboratory results: the Immune Epitope Database (IEDB)
pKd: −log10 of the molar value.

What was measured:
Experiment in all cases: IEDB peptide-MHC binding, purified MHC/competitive/radioactivity; filed as Kd, often an IC50 or EC50 that approximates it; ≥ and ≤ were set here for values at or beyond the usual limits of such assays
Conditions in all cases: source organism: Plasmodium falciparum 3D7
HLA-A*29:02 = target: HLA-A*29:02
HLA-A*24:02 = target: HLA-A*24:02
HLA-A*23:01 = target: HLA-A*23:01
HLA-A*30:02 = target: HLA-A*30:02
HLA-A*01:01 = target: HLA-A*01:01
HLA-A*26:01 = target: HLA-A*26:01
HLA-A*02:02 = target: HLA-A*02:02
HLA-A*02:06 = target: HLA-A*02:06
HLA-A*68:02 = target: HLA-A*68:02
HLA-A*02:01 = target: HLA-A*02:01
HLA-A*02:03 = target: HLA-A*02:03
HLA-A*68:01 = target: HLA-A*68:01
HLA-A*31:01 = target: HLA-A*31:01
HLA-A*03:01 = target: HLA-A*03:01
HLA-A*11:01 = target: HLA-A*11:01
HLA-A*33:01 = target: HLA-A*33:01

KYEALIKLL
pKd (HLA-A*29:02): ≤ 5.00 | pKd (HLA-A*24:02): 5.54 | pKd (HLA-A*23:01): 6.32 | pKd (HLA-A*30:02): ≤ 5.00

NFINFIKVL
pKd (HLA-A*29:02): ≤ 5.00 | pKd (HLA-A*24:02): ≤ 5.00 | pKd (HLA-A*23:01): 5.98 | pKd (HLA-A*30:02): ≤ 5.00

NVDQQNDMY
pKd (HLA-A*29:02): ≤ 5.00 | pKd (HLA-A*01:01): 7.33 | pKd (HLA-A*26:01): ≤ 5.00 | pKd (HLA-A*30:02): ≤ 5.00

TYKKKNNHI
pKd (HLA-A*29:02): ≤ 5.00 | pKd (HLA-A*24:02): 7.52 | pKd (HLA-A*23:01): 7.09

DFFLKSKFNI
pKd (HLA-A*29:02): ≤ 5.00 | pKd (HLA-A*24:02): 5.78 | pKd (HLA-A*23:01): 6.52 | pKd (HLA-A*30:02): 5.58

FLVFLVFSNV
pKd (HLA-A*02:02): 6.67 | pKd (HLA-A*02:06): 6.63 | pKd (HLA-A*68:02): 5.27 | pKd (HLA-A*02:01): 6.57

FQAAESNERY
pKd (HLA-A*29:02): 5.75 | pKd (HLA-A*01:01): 5.05 | pKd (HLA-A*26:01): 5.45 | pKd (HLA-A*30:02): 6.43

NQMIFVSSI
pKd (HLA-A*02:02): 7.68 | pKd (HLA-A*02:03): 8.44 | pKd (HLA-A*02:06): 7.85 | pKd (HLA-A*68:02): 6.70 | pKd (HLA-A*02:01): 6.60

LLNESNIFL
pKd (HLA-A*02:02): 8.60 | pKd (HLA-A*02:03): 7.62 | pKd (HLA-A*02:06): 6.84 | pKd (HLA-A*68:02): 5.35 | pKd (HLA-A*02:01): 7.37

SFFMNRFYI
pKd (HLA-A*29:02): 6.70 | pKd (HLA-A*24:02): 6.76 | pKd (HLA-A*23:01): 7.96 | pKd (HLA-A*30:02): 5.99

VICSFLVFLV
pKd (HLA-A*02:02): 6.38 | pKd (HLA-A*02:03): 5.54 | pKd (HLA-A*02:06): 6.71 | pKd (HLA-A*68:02): 5.71

MFVPKYFEL
pKd (HLA-A*29:02): 5.59 | pKd (HLA-A*24:02): 6.58 | pKd (HLA-A*23:01): 7.96 | pKd (HLA-A*30:02): 5.07

FVSSIFISFY
pKd (HLA-A*29:02): 7.66 | pKd (HLA-A*01:01): 6.93 | pKd (HLA-A*26:01): 7.96 | pKd (HLA-A*30:02): 7.08

ATYGIIVPV
pKd (HLA-A*02:02): 8.70 | pKd (HLA-A*02:03): 8.55 | pKd (HLA-A*02:06): 8.30 | pKd (HLA-A*68:02): 7.68 | pKd (HLA-A*02:01): 8.49

VLFLQMMNV
pKd (HLA-A*02:02): 8.74 | pKd (HLA-A*02:03): 8.57 | pKd (HLA-A*02:06): 8.02 | pKd (HLA-A*68:02): 6.49 | pKd (HLA-A*02:01): 7.51

RYQDPQNYEL
pKd (HLA-A*29:02): ≤ 5.00 | pKd (HLA-A*23:01): 6.91 | pKd (HLA-A*30:02): 7.08

FMNRFYITT
pKd (HLA-A*02:02): 7.74 | pKd (HLA-A*02:06): 6.00 | pKd (HLA-A*68:02): 5.18

VYYNILIVL
pKd (HLA-A*29:02): ≤ 5.00 | pKd (HLA-A*24:02): 6.58 | pKd (HLA-A*23:01): 7.28 | pKd (HLA-A*30:02): 5.95

QNADKNFLY
pKd (HLA-A*29:02): 7.62 | pKd (HLA-A*01:01): 5.42 | pKd (HLA-A*26:01): 6.78 | pKd (HLA-A*30:02): 6.18

RMTSLKNEL
pKd (HLA-A*29:02): ≤ 5.00 | pKd (HLA-A*24:02): ≤ 5.00 | pKd (HLA-A*30:02): 7.85

SSPLFNNFY
pKd (HLA-A*01:01): 6.93 | pKd (HLA-A*26:01): 7.77 | pKd (HLA-A*30:02): 7.39

LIENELMNY
pKd (HLA-A*29:02): 5.40 | pKd (HLA-A*01:01): 6.39 | pKd (HLA-A*26:01): 6.64 | pKd (HLA-A*30:02): 6.79

LEASISGKY
pKd (HLA-A*29:02): ≤ 5.00 | pKd (HLA-A*01:01): ≤ 5.00 | pKd (HLA-A*26:01): 5.40 | pKd (HLA-A*30:02): 7.06

NILIVLYYL
pKd (HLA-A*02:02): 5.79 | pKd (HLA-A*02:03): 5.06 | pKd (HLA-A*02:06): 5.96 | pKd (HLA-A*68:02): ≤ 5.00 | pKd (HLA-A*02:01): ≤ 5.00

TYGIIVPVL
pKd (HLA-A*29:02): ≤ 5.00 | pKd (HLA-A*24:02): 6.61 | pKd (HLA-A*23:01): 7.39 | pKd (HLA-A*30:02): 5.82

LYYLFNQHI
pKd (HLA-A*29:02): ≤ 5.00 | pKd (HLA-A*24:02): 7.48 | pKd (HLA-A*23:01): 8.85 | pKd (HLA-A*30:02): ≤ 5.00

LNEQLIYTY
pKd (HLA-A*29:02): 5.62 | pKd (HLA-A*01:01): ≤ 5.00 | pKd (HLA-A*26:01): 5.21 | pKd (HLA-A*30:02): 5.38

SSFFMNRFY
pKd (HLA-A*29:02): 7.44 | pKd (HLA-A*01:01): 6.62 | pKd (HLA-A*26:01): 6.78 | pKd (HLA-A*30:02): 8.12

IYYFDGNSW
pKd (HLA-A*29:02): 5.51 | pKd (HLA-A*23:01): 8.21 | pKd (HLA-A*30:02): 5.52

QAAESNERY
pKd (HLA-A*29:02): ≤ 5.00 | pKd (HLA-A*01:01): 6.45 | pKd (HLA-A*26:01): 6.85 | pKd (HLA-A*30:02): 5.52

VSSIFISFY
pKd (HLA-A*29:02): 5.74 | pKd (HLA-A*01:01): 6.84 | pKd (HLA-A*26:01): 5.79 | pKd (HLA-A*30:02): 7.26

SQDLACIFDA
pKd (HLA-A*68:01): ≤ 5.00 | pKd (HLA-A*31:01): ≤ 5.00 | pKd (HLA-A*03:01): ≤ 5.00 | pKd (HLA-A*11:01): ≤ 5.00 | pKd (HLA-A*33:01): ≤ 5.00

SSFDIKSEVK
pKd (HLA-A*68:01): 7.51 | pKd (HLA-A*31:01): ≤ 5.00 | pKd (HLA-A*03:01): 5.72 | pKd (HLA-A*11:01): 7.72 | pKd (HLA-A*33:01): ≤ 5.00

PVLTSLFNK
pKd (HLA-A*68:01): ≤ 5.00 | pKd (HLA-A*31:01): 5.29 | pKd (HLA-A*03:01): 5.71 | pKd (HLA-A*11:01): 7.60 | pKd (HLA-A*33:01): ≤ 5.00

VYRHCEYIL
pKd (HLA-A*29:02): ≤ 5.00 | pKd (HLA-A*24:02): 5.66 | pKd (HLA-A*23:01): 7.19 | pKd (HLA-A*30:02): 5.48

YLINKHWQR
pKd (HLA-A*68:01): 8.43 | pKd (HLA-A*31:01): 8.36 | pKd (HLA-A*03:01): 5.99 | pKd (HLA-A*11:01): 6.17 | pKd (HLA-A*33:01): 8.11

QEEQKKYIY
pKd (HLA-A*29:02): ≤ 5.00 | pKd (HLA-A*01:01): ≤ 5.00 | pKd (HLA-A*26:01): ≤ 5.00 | pKd (HLA-A*30:02): ≤ 5.00

RLPVICSFLV
pKd (HLA-A*02:02): 8.60 | pKd (HLA-A*02:03): 7.48 | pKd (HLA-A*02:06): 7.72 | pKd (HLA-A*68:02): 5.04

SYKSSKRDKF
pKd (HLA-A*29:02): ≤ 5.00 | pKd (HLA-A*24:02): 6.59 | pKd (HLA-A*23:01): 6.10 | pKd (HLA-A*30:02): 7.06

KFNILSSPL
pKd (HLA-A*29:02): ≤ 5.00 | pKd (HLA-A*24:02): 5.76 | pKd (HLA-A*23:01): 5.75 | pKd (HLA-A*30:02): 5.89

LFDKDTFFK
pKd (HLA-A*68:01): 7.00 | pKd (HLA-A*31:01): 5.24 | pKd (HLA-A*03:01): 6.03 | pKd (HLA-A*11:01): 6.78 | pKd (HLA-A*33:01): 5.92

YQDPQNYEL
pKd (HLA-A*02:02): 7.74 | pKd (HLA-A*02:03): 6.36 | pKd (HLA-A*02:06): 7.28 | pKd (HLA-A*68:02): ≤ 5.00 | pKd (HLA-A*02:01): 7.10

NIFLRFIPDK
pKd (HLA-A*68:01): 5.82 | pKd (HLA-A*31:01): ≤ 5.00 | pKd (HLA-A*03:01): ≤ 5.00 | pKd (HLA-A*11:01): 5.67 | pKd (HLA-A*33:01): 5.96

YYNNFNNNY
pKd (HLA-A*23:01): 6.90 | pKd (HLA-A*30:02): 7.24

NHEQKLSEY
pKd (HLA-A*29:02): ≤ 5.00 | pKd (HLA-A*01:01): ≤ 5.00 | pKd (HLA-A*26:01): ≤ 5.00 | pKd (HLA-A*30:02): ≤ 5.00

ELEASISGKY
pKd (HLA-A*29:02): ≤ 5.00 | pKd (HLA-A*01:01): 6.85 | pKd (HLA-A*26:01): 7.64 | pKd (HLA-A*30:02): 6.33

FISFYLINK
pKd (HLA-A*68:01): 7.74 | pKd (HLA-A*31:01): 5.66 | pKd (HLA-A*03:01): 7.72 | pKd (HLA-A*11:01): 8.05 | pKd (HLA-A*33:01): 5.84

IIALLIIPPK
pKd (HLA-A*68:01): 7.09 | pKd (HLA-A*31:01): ≤ 5.00 | pKd (HLA-A*03:01): 7.52 | pKd (HLA-A*11:01): 8.28 | pKd (HLA-A*33:01): 5.07

RLFEESLGI
pKd (HLA-A*02:02): 8.72 | pKd (HLA-A*02:03): 8.26 | pKd (HLA-A*02:06): 7.17 | pKd (HLA-A*68:02): 6.38
